# Laboratory results published in IntAct's records for PubMed 22184064.
# Target: CCNY, Q8ND76-1
# Sequence (Q8ND76 whole entry): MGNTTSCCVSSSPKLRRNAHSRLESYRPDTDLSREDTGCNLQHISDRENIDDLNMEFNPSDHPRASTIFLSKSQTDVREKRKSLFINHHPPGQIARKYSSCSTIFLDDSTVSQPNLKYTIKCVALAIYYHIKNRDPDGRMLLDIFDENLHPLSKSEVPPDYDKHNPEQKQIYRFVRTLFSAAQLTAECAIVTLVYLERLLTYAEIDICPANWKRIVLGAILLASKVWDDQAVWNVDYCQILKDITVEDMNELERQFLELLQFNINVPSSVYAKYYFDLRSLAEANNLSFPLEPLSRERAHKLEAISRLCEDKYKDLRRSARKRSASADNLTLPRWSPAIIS
# Cyclin-dependent kinase 16 (Homo sapiens), Q00536 S153A, sequence (Q00536 whole entry S153A): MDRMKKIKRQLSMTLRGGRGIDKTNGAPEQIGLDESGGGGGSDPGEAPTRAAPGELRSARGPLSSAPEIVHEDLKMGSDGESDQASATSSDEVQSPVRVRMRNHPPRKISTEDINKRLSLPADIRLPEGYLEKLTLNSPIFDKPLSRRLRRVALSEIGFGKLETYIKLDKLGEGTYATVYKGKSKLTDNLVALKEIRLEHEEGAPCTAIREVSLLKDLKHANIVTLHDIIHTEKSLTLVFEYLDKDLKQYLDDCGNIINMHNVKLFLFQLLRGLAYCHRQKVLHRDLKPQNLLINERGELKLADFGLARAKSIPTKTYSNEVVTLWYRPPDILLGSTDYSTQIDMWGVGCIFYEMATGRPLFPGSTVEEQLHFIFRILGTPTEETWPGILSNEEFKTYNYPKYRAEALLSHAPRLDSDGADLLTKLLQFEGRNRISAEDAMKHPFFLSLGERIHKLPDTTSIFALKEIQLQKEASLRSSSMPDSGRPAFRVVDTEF
# Cyclin-dependent kinase 16 (Homo sapiens), Q00536 S119A, sequence (Q00536 whole entry S119A): as the sequence (Q00536 whole entry S153A) above, with S119A, A153S counted along it
# Cyclin-dependent kinase 16 (Homo sapiens), Q00536 S153D, sequence (Q00536 whole entry S153D): as the sequence (Q00536 whole entry S153A) above, with A153D counted along it
# Cyclin-dependent kinase 16 (Homo sapiens), Q00536 K216E, sequence (Q00536 whole entry K216E): as the sequence (Q00536 whole entry S153A) above, with A153S, K216E counted along it
# Cyclin-dependent kinase 16 (Homo sapiens), Q00536 I209T, sequence (Q00536 whole entry I209T): as the sequence (Q00536 whole entry S153A) above, with A153S, I209T counted along it
# Cyclin-dependent kinase 16 (Homo sapiens), Q00536 G158D, sequence (Q00536 whole entry G158D): as the sequence (Q00536 whole entry S153A) above, with A153S, G158D counted along it
row,Substance,effect of a mutation on the interaction
1,"Cyclin-dependent kinase 16 (Homo sapiens), Q00536 G158D",disrupting interaction strength
2,"Cyclin-dependent kinase 16 (Homo sapiens), Q00536 I209T",disrupting interaction strength
3,"Cyclin-dependent kinase 16 (Homo sapiens), Q00536 K216E",disrupting interaction strength
4,"Cyclin-dependent kinase 16 (Homo sapiens), Q00536 S119A",disrupting interaction strength
5,"Cyclin-dependent kinase 16 (Homo sapiens), Q00536 S153A",increasing interaction strength
6,"Cyclin-dependent kinase 16 (Homo sapiens), Q00536 S153D",disrupting interaction strength
